Experimental data published in PMC2929022 (Molecular cell, 2010).

T1: GST-YcgR-HA fusion (wild-type YcgR of E. coli) (E. coli, UniProt P76010 1-244)
T1 sequence (looked up): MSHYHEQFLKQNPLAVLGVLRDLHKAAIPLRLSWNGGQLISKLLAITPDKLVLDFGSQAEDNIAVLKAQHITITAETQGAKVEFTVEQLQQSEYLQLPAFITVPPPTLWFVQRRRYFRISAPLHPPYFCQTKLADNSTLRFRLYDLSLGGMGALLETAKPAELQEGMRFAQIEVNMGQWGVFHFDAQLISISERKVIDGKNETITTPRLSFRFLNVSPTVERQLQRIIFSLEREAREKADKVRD


Biological target: T1, GST-YcgR-HA fusion (wild-type YcgR of …)
Assay: pull-down

| fold increase of binding with c-di-GMP at 5 μM or higher over no added c-di-GMP [fold] | Binder |
| --- | --- |
| ~2 | FliM (E. coli) (natural protein, UniProt P06974 1-334, looked up) MGDSILSQAEIDALLNGDSEVKDEPTASVSGESDIRPYDPNTQRRVVRERLQALEIINERFARHFRMGLFNLLRRSPDITVGAIRIQPYHEFARNLPVPTNLNLIHLKPLRGTGLVVFSPSLVFIAVDNLFGGDGRFPTKVEGREFTHTEQRVINRMLKLALEGYSDAWKAINPLEVEYVRSEMQVKFTNITTSPNDIVVNTPFHVEIGNLTGEFNICLPFSMIEPLRELLVNPPLENSRNEDQNWRDNLVRQVQHSQLELVANFADISLRLSQILKLNPGDVLPIEKPDRIIAHVDGVPVLTSQYGTLNGQYALRIEHLINPILNSLNEEQPK |
| ~2 | FliG (E. coli) (natural protein, UniProt P0ABZ1 1-331, looked up) MSNLTGTDKSVILLMTIGEDRAAEVFKHLSQREVQTLSAAMANVTQISNKQLTDVLAEFEQEAEQFAALNINANDYLRSVLVKALGEERAASLLEDILETRDTASGIETLNFMEPQSAADLIRDEHPQIIATILVHLKRAQAADILALFDERLRHDVMLRIATFGGVQPAALAELTEVLNGLLDGQNLKRSKMGGVRTAAEIINLMKTQQEEAVITAVREFDGELAQKIIDEMFLFENLVDVDDRSIQRLLQEVDSESLLIALKGAEQPLREKFLRNMSQRAADILRDDLANRGPVRLSQVENEQKAILLIVRRLAETGEMVIGSGEDTYV |
